Numbering of substitutions follows the chain as printed. Names and notes keep the numbering of the source.
T1: BioH (Escherichia coli, UniProt P13001)
T1 sequence (P13001 1-256): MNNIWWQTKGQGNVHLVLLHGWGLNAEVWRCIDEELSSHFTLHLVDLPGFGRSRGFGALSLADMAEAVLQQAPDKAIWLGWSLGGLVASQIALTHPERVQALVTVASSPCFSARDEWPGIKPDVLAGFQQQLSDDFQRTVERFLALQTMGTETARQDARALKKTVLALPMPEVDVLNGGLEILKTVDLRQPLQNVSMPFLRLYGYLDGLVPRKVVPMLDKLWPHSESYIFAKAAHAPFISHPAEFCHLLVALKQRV

T2: Atu1476 (Agrobacterium fabrum, UniProt A9CJ11)
T2 sequence (A9CJ11 1-277): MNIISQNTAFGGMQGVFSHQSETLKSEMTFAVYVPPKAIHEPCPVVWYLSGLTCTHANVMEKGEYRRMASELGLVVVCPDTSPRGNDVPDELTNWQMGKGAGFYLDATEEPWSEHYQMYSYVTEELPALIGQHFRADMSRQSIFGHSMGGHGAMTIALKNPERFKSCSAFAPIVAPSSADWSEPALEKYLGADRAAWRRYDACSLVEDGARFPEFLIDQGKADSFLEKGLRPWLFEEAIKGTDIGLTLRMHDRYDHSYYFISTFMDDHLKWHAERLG

T3: YeiG (Escherichia coli, UniProt P33018)
T3 sequence (P33018 1-278): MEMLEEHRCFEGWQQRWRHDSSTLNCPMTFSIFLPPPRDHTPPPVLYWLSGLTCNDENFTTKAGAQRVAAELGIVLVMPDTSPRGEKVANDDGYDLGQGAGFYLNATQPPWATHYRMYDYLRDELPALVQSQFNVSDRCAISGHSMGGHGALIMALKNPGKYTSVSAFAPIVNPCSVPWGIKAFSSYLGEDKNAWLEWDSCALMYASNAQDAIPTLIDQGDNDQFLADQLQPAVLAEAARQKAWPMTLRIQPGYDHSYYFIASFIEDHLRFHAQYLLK

B1: OLEI01171 (Oleispira antarctica) (protein)
chain: MSIENLSSNKSFGGWHKQYSHVSNTLNCAMRFAIYLPPQASTGAKVPVLYWLSGLTCSDENFMQKAGAQRLAAELGIAIVAPDTSPRGEGVADDEGYDLGQGAGFYVNATQAPWNRHYQMYDYVVNELPELIESMFPVSDKRAIAGHSMGGHGALTIALRNPERYQSVSAFSPINNPVNCPWGQKAFTAYLGKDTDTWREYDASLLMRAAKQYVPALVDQGEADNFLAEQLKPEVLEAAASSNNYPLELRSHEGYDHSYYFIASFIEDHLRFHSNYLNA
B2: OLEI01171 (Oleispira antarctica; Y98A) (protein)
chain: B1 chain with Y97A
B3: OLEI01171 (Oleispira antarctica; S59A) (protein)
chain: B1 chain with S58A
B4: OLEI01171 (Oleispira antarctica; N62A) (protein)
chain: B1 chain with N61A
B5: OLEI01171 (Oleispira antarctica; A224K) (protein)
chain: B1 chain with A223K
B6: OLEI01171 (Oleispira antarctica; S173A) (protein)
chain: B1 chain with S172A
B7: OLEI01171 (Oleispira antarctica; N226A) (protein)
chain: B1 chain with N225A
B8: OLEI01171 (Oleispira antarctica; C58A) (protein)
chain: B1 chain with C57A
B9: OLEI01171 (Oleispira antarctica; K66A) (protein)
chain: B1 chain with K65A
B10: OLEI01171 (Oleispira antarctica; N226K) (protein)
chain: B1 chain with N225K

What was measured:
BioH = molecular target: T1, BioH; experiment: esterase activity, temperature profile; format: biochemical; settings: 50 mM potassium Hepes pH 8.0; temperature varied
Atu1476 = molecular target: T2, Atu1476; experiment: esterase activity, temperature profile; format: biochemical; settings: 50 mM potassium Hepes pH 8.0; temperature varied
YeiG = molecular target: T3, YeiG; experiment: esterase activity, temperature profile; format: biochemical; settings: 50 mM potassium Hepes pH 8.0; temperature varied
[1] = substrate: CC(=O)Oc1ccc([N+](=O)[O-])cc1; experiment: spectrophotometric esterase assay; format: biochemical, Oleispira antarctica; settings: no salt, 50 mM potassium Hepes pH 8.0, 20°C
[2] = substrate: CC(=O)Oc1cccc2ccccc12; experiment: spectrophotometric esterase assay; format: biochemical, Oleispira antarctica; settings: 50 mM potassium Hepes pH 8.0, 20°C
[3] = substrate: CCC(=O)Oc1ccc([N+](=O)[O-])cc1; experiment: spectrophotometric esterase assay; format: biochemical, Oleispira antarctica; settings: 0.4 M NaCl, 50 mM potassium Hepes pH 8.0, 20°C
[4] = substrate: CCC(=O)Oc1cccc2ccccc12; experiment: spectrophotometric esterase assay; format: biochemical, Oleispira antarctica; settings: 0.4 M NaCl, 50 mM potassium Hepes pH 8.0, 20°C
[5] = substrate: CCCC(=O)Oc1ccc([N+](=O)[O-])cc1; experiment: spectrophotometric esterase assay; format: biochemical, Oleispira antarctica; settings: 0.4 M NaCl, 50 mM potassium Hepes pH 8.0, 20°C
[6] = substrate: CCCC(=O)Oc1cccc2ccccc12; experiment: spectrophotometric esterase assay; format: biochemical, Oleispira antarctica; settings: 0.4 M NaCl, 50 mM potassium Hepes pH 8.0, 20°C

Row | Molecule | Km ([2]; 0.4 M NaCl) [µM] | kcat ([2]; 0.4 M NaCl) [s⁻¹] | kcat/Km ([2]; 0.4 M NaCl) [M⁻¹ s⁻¹] | further results
1 | CCCC(=O)Oc1ccc([N+](=O)[O-])cc1 [pNP-butyrate] | – | – | – | esterase activity, temperature profile (BioH): using α-naphthyl acetate (A), pNP-butyrate (B and D) and pNP-propionate (C) as substrates; esterase activity, temperature profile (Atu1476): using α-naphthyl acetate (A), pNP-butyrate (B and D) and pNP-propionate (C) as substrates
2 | CCC(=O)Oc1ccc([N+](=O)[O-])cc1 [pNP-propionate] | – | – | – | esterase activity, temperature profile (YeiG): using α-naphthyl acetate (A), pNP-butyrate (B and D) and pNP-propionate (C) as substrates
3 | B1 | – | – | – | Km [1]: 700 ± 100 µM; kcat [1]: 0.2 ± 0.03 s⁻¹; kcat/Km [1]: 300 M⁻¹ s⁻¹; Km ([2]; no salt): 400 ± 30 µM; kcat ([2]; no salt): 0.8 ± 0.02 s⁻¹; kcat/Km ([2]; no salt): 2000 M⁻¹ s⁻¹; Km [3]: 700 ± 200 µM; kcat [3]: 0.3 ± 0.03 s⁻¹; kcat/Km [3]: 400 M⁻¹ s⁻¹; Km [4]: 200 ± 30 µM; kcat [4]: 1.5 ± 0.1 s⁻¹; kcat/Km [4]: 8000 M⁻¹ s⁻¹; Km [5]: 900 ± 300 µM; kcat [5]: 0.2 ± 0.03 s⁻¹; kcat/Km [5]: 200 M⁻¹ s⁻¹; Km [6]: 200 ± 40 µM; kcat [6]: 0.06 ± 0.01 s⁻¹; kcat/Km [6]: 300 M⁻¹ s⁻¹
4 | B2 | 1700 ± 300 | 2.9 ± 0.3 | 2000 | –
5 | B3 | 400 ± 10 | 0.8 ± 0.1 | 2000 | –
6 | B4 | 500 ± 100 | 1.8 ± 0.2 | 4000 | –
7 | B5 | 300 ± 40 | 1.1 ± 0.1 | 4000 | –
8 | B6 | 600 ± 100 | 5.3 ± 0.3 | 9000 | –
9 | B7 | 500 ± 100 | 1.7 ± 0.1 | 3000 | –
10 | B8 | 200 ± 10 | 0.9 ± 0.02 | 5000 | –
11 | B9 | 400 ± 10 | 1.2 ± 0.1 | 3000 | –
12 | B10 | 400 ± 100 | 3 ± 0.2 | 8000 | –

From publication PMC4127636 (The Biochemical journal, 2012)
